According to US20220054591A1, “METHODS OF TREATING OF INFLAMMATORY BOWEL DISEASE AND PARASITE INFECTION” (President and Fellows of Harvard College, priority 2016, published 2022):
“Also recorded” adds a separate entry of the source.

B1: IL-25: recombinant IL-25 (Biolegend; R&D), parasite-induced cytokine, added to organoids or injected i.p. (protein, UniProt Q8VHH8 17-169, looked up)
Interleukin-25: VSLRIQEGCSHLPSCCPSKEQEPPEEWLKWSSASVSPPEPLSHTHHAESCRASKDGPLNSRAISPWSYELDRDLNRVPQDLYHARCLCPHCVSLQTGSHMDPLGNSVPLYHNQTVFYRRPCHGEEGTHRRYCLERRLYRVSLACVCVRPRVMA
B2: IL-13: recombinant IL-13 (Biolegend), type 2 cytokine added to organoid media (protein, UniProt P20109 19-131, looked up)
Interleukin-13: APGPVPRSVSLPLTLKELIEELSNITQDQTPLCNGSMVWSVDLAAGGFCVALDSLTNISNCNAIYRTQRILHGLCNRKAPTTVSSLPDTKIEVAHFITKLLSYTKQLFRHGPF

Columns and labels:
[1] = tested on: Tritrichomonas muris; assay: Metronidazole in drinking water of WT (BIH) mice: T. muris abundance in stool DNA by qPCR; assay type: in vivo; conditions: metronidazole 2.5 g/L in drinking water for 1 week
Protocol: (§1) Antibiotic treatment—Mice were treated with metronidazole (2.5 g/L) with 1% sucrose in the drinking water for 7 days. Control mice were given 1% sucrose water over the same time span. Fluid intake was monitored and metronidazole solution was changed 4 days after initiating antibiotic treatment.
Tritrichomonas muris enumeration—The distal 10 cm of small intestine was removed and flushed with ice-cold sterile PBS using a 19-gauge feeding needle. The intestinal contents were then pelleted by centrifugation and stored at −20° C. Genomic DNA was isolated from the stool with QIamp Fast DNA Stool mini kit (Qiagen) according to the manufacturer's directions. To detect and enumerate Tritrichomonas muris, quantitative PCR (qPCR) was performed using KAPPA SYBR fast Universal PCR (KAPPA Biosystems) with the following primers recognizing T. muris 28S rRNA gene: 5′-[…]-3′(SEQ ID NO. 1) and 5′-[…]-3′ (SEQ ID NO. 2). To convert qPCR values into parasite numbers, T. muris trophozoytes were isolated and counted using a hemocytomer before extracting genomic DNA and analyzing by qPCR. […] The T. muris 28S rRNA gene and Eubacteria 16S rRNA gene were amplified by qPCR and T. muris 28S relative abundance was calculated as 2^−ΔCt(28S-16S).

[2] = tested on: tuft cells; assay: Metronidazole in drinking water of WT (BIH) mice: tuft cell frequency in the epithelium; assay type: in vivo; conditions: metronidazole 2.5 g/L in drinking water for 1 week, vs control
Protocol: as §1
Histology and Fluorescence microscopy —The small intestine was removed and divided into proximal and distal sections before fixation in 4% paraformaldehyde. The tissue was then embedded in paraffin and cut into 5 μm thick sections. For both histology and immunofluorescence, sections were initially deparaffinized and rehydrated. Hematoxylin and eosin (H&E) staining was performed using standard procedures. Goblet cells were identified by alcian blue/nuclear red staining and enumerated along the crypt-villus axis by quantitative microscopy. For immunofluorescence, heat-mediated antigen retrieval was performed in Tris-EDTA buffer 0.05% Tween-20 pH 9.0 for 20 minutes. Afterwards, the slides were washed in PBS and blocked in PBS containing 3% BSA, 3% donkey serum, 0.1% Triton X-100, 0.1% saponin for 1 hour at room temperature. Primary antibodies were incubated overnight at 4° C. and secondary antibodies were applied for 1.5 hours at room temperature. […]

[3] = tested on: eosinophils and tuft cells of the distal small intestine; assay: In vivo IL-25 i.p. injections in T. muris colonized Trpm5-/- mice: eosinophils and tuft cells of distal small intestine; conditions: 0.5 μg IL-25 i.p. daily for 7 days, vs PBS
Protocol: Epithelial cell isolation and flow cytometry —The distal 10 cm of small intestine was removed and flushed as described above. The intestine was opened longitudinally and gently agitated at 4° C. in PBS, 2% FBS, 5 mM EDTA, 1 mM DTT for 10 min. The tissue was then transferred into prewarmed PBS, 2% FBS, 5 mM EDTA and rotated at 37° C. for 15 minutes followed by vigorous shaking to remove epithelial cells. This was repeated and epithelial cells from both fractions were combined and washed with PBS. The epithelium was then digested in DMEM containing 10% FBS, 0.5 units/ml Dispase II (StemCell Technologies), 50 μg/ml DNase (Roche) for 12 minutes at 37° C. The resulting solution was passed through 40 μm filters and washed with PBS, 2% FBS, 1 mM EDTA. The resulting single cell suspension was initially Fc blocked with anti-CD16/CD32 (clone 93, Biolegend) and then stained with the following antibodies: PacBlue-conjugated anti-CD45 (clone 30-F11, Biolegend), APC-conjugated anti-EpCam (clone G8.8, Biolegend). The cell viability was assessed by propidium iodide (PI) (Biolegend) staining.
Lamina propria cell isolation and flow cytometry—The distal 10 cm of small intestine was collected and epithelial cells were removed as detailed above. […]

[4] = tested on: tuft cells in small intestinal organoids; assay: Small intestinal organoids treated with recombinant cytokine: GFP+ tuft cell abundance by flow cytometry; assay type: cell-based, mice; conditions: 48 hours; for effect on tuft cell numbers / abundance in organoids (in words): WT and Trpm5-/- organoids, IL-13 10 ng/ml or IL-25 50 ng/ml; for tuft cells of total organoid cells: IL-13 10 ng/ml, untreated 0.3%
Protocol: Small intestine organoid culture and flow cytometry—Distal small intestinal organoids were prepared as previously described (Miyoshi et al., Nat Protoc. 8, 2471-2482 (2013)). To assess cytokine effects on tuft cells abundance, IL-13 (10 ng/ml, Biolegend, Endotoxin level <0.01 ng/μg) or IL-25 (50 ng/mil, Biolegend, Endotoxin level <0.01 ng/μg) were added to organoid media for 48 hours. To perform flow cytometry, organoids were liberated from the matrigel matrix as described by Miyoshi et al. and digested in DMEM containing 10% FBS, 0.5 units/ml Dispase II (StemCell Technologies), 50 μg/ml DNase (Roche) for 8 minutes at 37° C. The resulting solution was filtered through 40 μm mesh and stained for flow cytometry with APC-conjugated anti-EpCam (clone G8.8, Biolegend) with cell viability assessed with PI (Biolegend).

[5] = tested on: DCLK1 and Trpm5 expression in organoids; assay: Small intestinal organoids treated with cytokine: gene expression by RT-qPCR; assay type: cell-based, mice; conditions: IL-13 treated organoids
Source text: RNA isolation and RT-PCR for in vivo and vitro tuft cells—Epithelial cells from Gfi1b^EGFP/+ mice were isolated and stained for Fluorescence Activated Cell Sorting (FACS) as previously detailed. Tuft cells were sorted based on GFP^+EpCam^+CD45^−PI^− while the remaining epithelial cells were GFP-EpCam^+CD45^−PI^−. RNA was then extracted from tuft cells and the remaining epithelium using RNeasy Micro Kit (Qiagen). Whole intestinal organoids were initially stored in RNAlater solution (Ambion) before extracting RNA using Qiazol (Qiagen) according to the manufacturer's directions. cDNA was synthesized using the iScript cDNA Synthesis Kit (Bio-Rad) and RT-qPCR was performed using the KAPA SYBR FAST Universal qPCR Kit (KAPA Biosystems). […]
Small intestine organoid culture and flow cytometry—Distal small intestinal organoids were prepared as previously described (Miyoshi et al., Nat Protoc. 8, 2471-2482 (2013)). […] The resulting solution was filtered through 40 μm mesh and stained for flow cytometry with APC-conjugated anti-EpCam (clone G8.8, Biolegend) with cell viability assessed with PI (Biolegend).

| Molecule | T. muris levels in stool (T. muris 28S rRNA relative to eubacteria 16S rRNA) [1] | tuft cell abundance / frequency in the epithelium [2] | distal small intestinal eosinophilia [3] | tuft cell abundance in distal small intestine [3] | effect on tuft cell numbers / abundance in organoids (in words) [4] | expression of Dclk1 in organoids [5] | expression of Trpm5 in organoids [5] | tuft cells of total organoid cells ([4]; Trpm5-/- organoids) [%] | tuft cells of total organoid cells ([4]; WT organoids) [%] |
| --- | --- | --- | --- | --- | --- | --- | --- | --- | --- |
| Cc1ncc([N+](=O)[O-])n1CCO [metronidazole] | eliminated T. muris; also recorded: below the limit of detection | reduced tuft cell abundance; also recorded: reduces tuft cell frequency | – | – | – | – | – | – | – |
| B1 | – | – | restoration | restoration | did not increase tuft cell numbers | – | – | – | – |
| B2 | – | – | – | – | increases tuft cell abundance | increased | increased | 10.9 | 11.9 |
